# Residue numbers refer to the chain shown, from its start. Numbers in names are those of the source.
# B1: Sticholysin II (StnII), wild type (natural protein, Stichodactyla helianthus, UniProt P07845 1-175, looked up)
# chain: ALAGTIIAGASLTFQVLDKVLEELGKVSRKIAVGIDNESGGTWTALNAYFRSGTTDVILPEFVPNTKALLYSGRKDTGPVATGAVAAFAYYMSSGNTLGVMFSVPFDYNWYSNWWDVKIYSGKRRADQGMYEDLYYGNPYRGDNGWHEKNLGYGLRMKGIMTSAGEAKMQIKISR
# notes: Sticholysin II (StnII), actinoporin of the sea anemone Stichodactyla helianthus; also called StnII WT; StnII-WT; source: E. coli RB791, purified to homogeneity
# B2: StnII-I6C/K67C^ox (oxidized double-Cys mutant of sticholysin II) (natural protein, Stichodactyla helianthus, UniProt P07845 1-175, looked up)
# chain: B1 chain with I6C, K67C
# modifications: disulfide bridge between C6 and C67 (oxidized form)
# notes: Sticholysin II (StnII) of Stichodactyla helianthus with I6C and K67C, made by site-directed mutagenesis; the disulfide prevents the deployment of the N-terminal alpha-helix; Used oxidized; also called StnII CC; source: E. coli RB791, purified to homogeneity
# B3: Sticholysin I (StnI), wild type (natural protein, Stichodactyla helianthus, UniProt P81662 1-176, looked up)
# chain: SELAGTIIDGASLTFEVLDKVLGELGKVSRKIAVGIDNESGGTWTALNAYFRSGTTDVILPEVVPNTKALLYSGRKSSGPVATGAVAAFAYYMSNGNTLGVMFSVPFDYNWYSNWWDVKIYPGKRRADQGMYEDMYYGNPYRGDNGWYQKNLGYGLRMKGIMTSAGEAKMQIKISR
# notes: Sticholysin I (StnI), actinoporin of the sea anemone Stichodactyla helianthus; also called StnI WT; source: E. coli RB791, purified to homogeneity
# B4: StnI-I7C/K68C^ox (oxidized double-Cys mutant of sticholysin I) (natural protein, Stichodactyla helianthus, UniProt P81662 1-176, looked up)
# chain: B3 chain with I7C, K68C
# modifications: disulfide bridge between C7 and C68 (oxidized form)
# notes: Sticholysin I (StnI) of Stichodactyla helianthus with I7C and K68C, made by site-directed mutagenesis; the disulfide holds the N-terminal alpha-helix on the beta-sandwich; Used oxidized; also called StnI CC; source: E. coli RB791, purified to homogeneity
# Target: the molecule itself
# Test: cross-linking
row,Protein,binding result
1,B1,binds
2,B2,binds
3,B3,binds
4,B4,binds
